From patent publication EP3766894A1 (Ecole Polytechnique Federale De Lausanne (EPFL) EPFL-TTO, dated 2021)
Positions of bridges follow the written chain, without caps; N, C: chain ends. Non-standard residues stand in square brackets, D forms with d. Primed or numbered codes have the meaning given here. Chains are numbered I, II in the order given. No end group written: not given here. *: point of attachment. Palmitoyl = CCCCCCCCCCCCCCCC(=O)*; Nle = CCCC[C@H](N)C(=O)O; PEG2″ = not defined here

Legend:
[1] = biological target: T1, human serum albumin (HSA) (human, UniProt P02768 25-609); assay: fluorescence polarization, dilution series of human serum
[2] = biological target: T2, human Kallikrein-related peptidase 5 (hKLK5) (human, UniProt Q9Y337 67-293, limits assumed); assay: activity assay in the presence of 25 µM HSA
T2 construct: Active protease in substrate-based activity assays; also called stratum corneum tryptic enzyme (SCTE)

mouse KLK5 (mKLK5) = mouse KLK5 (mKLK5) (mouse); assay: substrate-based activity assay, same conditions as for hKLK
[3] = biological target: T3, human Kallikrein-related peptidase 7 (hKLK7) (human, UniProt P49862 30-253); assay: activity assay in the presence of 25 µM HSA
T3 construct: Active protease in substrate-based activity assays; also called stratum corneum chymotryptic enzyme (SCCE)

mouse KLK7 (mKLK7) = mouse KLK7 (mKLK7) (mouse, UniProt Q91VE3 26-249); assay: substrate-based activity assay, same conditions as for hKLK
[4] = biological target: T2, human Kallikrein-related peptidase 5 …; assay: substrate-based activity assay
FXIIa (Factor XIIa) = biological target: T4, FXIIa (Factor XIIa) (human, UniProt P00748 373-615, limits assumed); assay: substrate-based activity assay
T4 sequence (looked up): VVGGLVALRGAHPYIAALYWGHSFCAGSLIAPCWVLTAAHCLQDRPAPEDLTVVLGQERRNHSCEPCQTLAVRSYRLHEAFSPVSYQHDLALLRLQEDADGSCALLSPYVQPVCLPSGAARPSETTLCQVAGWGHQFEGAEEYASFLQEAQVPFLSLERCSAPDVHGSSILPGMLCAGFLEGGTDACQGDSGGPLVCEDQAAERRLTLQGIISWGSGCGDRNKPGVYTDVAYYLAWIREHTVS

[5] = biological target: T1, human serum albumin (HSA); assay: fluorescence polarization
[6] = biological target: T5, mouse serum albumin (MSA) (mouse, UniProt P07724 25-608); assay: fluorescence polarization, dilution series of mouse albumin in PBS
T5 construct: also called mouse albumin

[7] = biological target: T3, human Kallikrein-related peptidase 7 …; assay: substrate-based activity assay

T2 sequence (Q9Y337 67-293 limits assumed): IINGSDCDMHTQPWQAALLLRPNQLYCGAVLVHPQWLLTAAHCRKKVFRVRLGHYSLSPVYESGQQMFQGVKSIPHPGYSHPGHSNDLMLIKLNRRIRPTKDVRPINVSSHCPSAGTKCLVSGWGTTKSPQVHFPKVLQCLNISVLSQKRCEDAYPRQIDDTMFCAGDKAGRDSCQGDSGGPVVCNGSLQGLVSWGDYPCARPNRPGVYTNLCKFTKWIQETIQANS
T3 sequence (P49862 30-253 limits assumed): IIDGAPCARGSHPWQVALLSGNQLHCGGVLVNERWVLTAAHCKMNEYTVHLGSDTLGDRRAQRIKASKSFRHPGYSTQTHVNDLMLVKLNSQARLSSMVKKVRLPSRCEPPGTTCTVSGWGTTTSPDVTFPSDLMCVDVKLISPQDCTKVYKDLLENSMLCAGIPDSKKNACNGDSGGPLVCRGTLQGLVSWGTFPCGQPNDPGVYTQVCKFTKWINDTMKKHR
mouse KLK7 (mKLK7), sequence (Q91VE3 26-249 limits assumed): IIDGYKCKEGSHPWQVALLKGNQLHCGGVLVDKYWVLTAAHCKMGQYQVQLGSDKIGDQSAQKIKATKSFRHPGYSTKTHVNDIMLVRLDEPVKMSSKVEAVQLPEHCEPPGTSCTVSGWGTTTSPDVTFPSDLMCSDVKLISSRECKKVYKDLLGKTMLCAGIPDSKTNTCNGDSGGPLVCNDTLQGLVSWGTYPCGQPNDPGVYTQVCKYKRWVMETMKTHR
T5 sequence (P07724 25-608 limits assumed): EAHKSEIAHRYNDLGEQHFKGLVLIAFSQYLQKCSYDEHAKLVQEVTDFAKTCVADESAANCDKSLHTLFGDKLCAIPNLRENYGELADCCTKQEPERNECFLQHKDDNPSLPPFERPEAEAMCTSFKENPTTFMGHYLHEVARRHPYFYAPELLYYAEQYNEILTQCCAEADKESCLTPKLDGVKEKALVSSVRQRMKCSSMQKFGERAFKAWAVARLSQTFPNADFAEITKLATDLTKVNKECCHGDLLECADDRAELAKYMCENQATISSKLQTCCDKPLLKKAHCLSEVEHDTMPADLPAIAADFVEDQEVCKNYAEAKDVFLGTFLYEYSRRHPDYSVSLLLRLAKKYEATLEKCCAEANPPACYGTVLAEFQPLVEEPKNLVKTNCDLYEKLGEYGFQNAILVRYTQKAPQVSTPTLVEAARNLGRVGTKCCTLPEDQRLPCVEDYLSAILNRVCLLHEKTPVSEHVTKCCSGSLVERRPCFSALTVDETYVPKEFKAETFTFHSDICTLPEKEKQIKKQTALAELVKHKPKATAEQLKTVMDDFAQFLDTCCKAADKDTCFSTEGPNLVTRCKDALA

B1: N-terminal albumin tag conjugate of KLK5 inhibitor 035 (peptide)
peptide 1: GCTRQYPC
peptide 2: {5(6)‑carboxyfluorescein}-EYEK(Palmitoyl)EYE
modifications: bridge I:2-I:8; not fully specified (C-terminus, bridges); also: chain 2 C-terminus joined via PEG2 to chain 1 N-terminus, linker to a chain's N/C-terminus via PEG2
With B1 the binding result [1] was “binds”, the Ki [2] was 23 nM and the “fold loss in activity against the cyclic peptide alone” value [2] was 10 fold.

B2: KLK5 inhibitor 035-tag (C-terminal albumin tag conjugate of 035) (peptide)
peptide 1: GCTRQYPCGKG
peptide 2: EYEK(Palmitoyl)EYE
modifications: bridge I:2-I:8; not fully specified (N-terminus, bridges); also: N-terminal fluorescein via PEG2, chain not given here, chain 2 tag joined via PEG2 to Lys10 side chain of chain 1
In the case of B2, the Kd [1] is reported as 119 nM, the Ki [2] is reported as 1.2 nM and the IC50 (mouse KLK5 (mKLK5)) is reported as 2 nM.

B3: KLK7 inhibitor 096-tag (C-terminal albumin tag conjugate of 096) (peptide)
peptide 1: PCLYLARCSGKG
peptide 2: EYEK(Palmitoyl)EYE
modifications: bridge I:2-I:8; not fully specified (N-terminus, bridges); also: N-terminal fluorescein via PEG2, chain not given here, chain 2 tag joined via PEG2 to Lys11 side chain of chain 1
Binder B3 has a Kd [1] of 164 nM, a Ki [3] of 32 nM and an IC50 (mouse KLK7 (mKLK7)) of 20 nM.

GCTRQYPC (linker 2-8 via 1,3‑dibromoacetone) [peptide 035 (lead KLK5 inhibitor)] was tested, and the Ki [4] was 2.2 nM and the Ki (FXIIa (Factor XIIa)) was 40000 nM.

B4: peptide 282 (albumin tag variant, biphenyl-3-carboxylic acid) (peptide)
peptide: EYEKEYEK
modifications: not fully specified; N-terminal cap based on peptide 266 with biphenyl-3-carboxylic acid; Lys 4 side chain acylated with palmitic acid; 5(6)-FAM on the side chain of the additional C-terminal Lys
B4 showed a Kd [5] of 132 nM.

B5: peptide 284 (albumin tag variant, 2-naphthalenecarboxylic acid) (peptide)
peptide: EYEKEYEK
modifications: not fully specified; N-terminal cap based on peptide 266 with 2-naphthalenecarboxylic acid; Lys 4 side chain acylated with palmitic acid; 5(6)-FAM on the side chain of the additional C-terminal Lys
Work on B5 yielded a Kd [5] of 147 nM.

In the case of {fluorescein-PEG2″}-EYEK(Palmitoyl)EYE (also called fluorescein-tag) [albumin tag (F-tag)], the Kd [6] is reported as 4200 nM.

PCLYLARCS (bridge 2-8; not fully specified (bridges)) [peptide 096 (lead KLK7 inhibitor)] gave a Ki [7] of 16 nM.

B6: peptide 114 with norleucine in position five (peptide)
peptide: PCLY[Nle]ARC
modifications: linker 2-8 via 1,3‑dibromoacetone
notes: No peptide number is printed for the untagged norleucine derivative
In the case of B6, the Ki [7] is reported as 7 nM.
